# Measurements published in patent US20090286738A1 (ST GEORGE S ENTERPRISES, published 2009).
# Non-standard residues stand in square brackets, D forms with d. No end group written: not given here.
# T1: PBX proteins of murine B16 melanoma cells (mouse (murine B16 melanoma cells), UniProt P41778 1-430, limits assumed)
# T1 sequence (looked up): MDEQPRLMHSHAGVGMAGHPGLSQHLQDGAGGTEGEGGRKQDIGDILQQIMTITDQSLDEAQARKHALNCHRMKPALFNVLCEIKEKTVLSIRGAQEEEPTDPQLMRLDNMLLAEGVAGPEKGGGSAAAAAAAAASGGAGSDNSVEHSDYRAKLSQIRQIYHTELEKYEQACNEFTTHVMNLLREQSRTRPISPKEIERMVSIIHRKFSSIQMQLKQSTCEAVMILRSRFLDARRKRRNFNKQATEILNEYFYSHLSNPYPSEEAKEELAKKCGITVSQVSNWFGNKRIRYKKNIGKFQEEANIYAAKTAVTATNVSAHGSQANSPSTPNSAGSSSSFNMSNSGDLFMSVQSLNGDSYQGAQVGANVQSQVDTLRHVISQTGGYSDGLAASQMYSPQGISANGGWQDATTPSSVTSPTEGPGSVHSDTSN
# Columns and labels:
# [1] = target: PBX proteins of human cancer cell lines (A549, LNCaP, SK-OV3, A498, J82) (human (human cell lines)); experiment: cell-based or functional assay
# [2] = target: T1, PBX proteins of murine B16 melanoma …; experiment: cell-based or functional assay
binder,measurement,setting,value
[dW]YPWMKKHHRRRRRRRR[dR] [HXArg9(2D)],"IC50 (µM), MTT assay, A498",[1],24 µM
same,"IC50 (µM), MTT assay, A549",[1],19 µM
same,"IC50 (µM), MTT assay, J82",[1],22 µM
same,"IC50 (µM), MTT assay, LNCaP",[1],21 µM
same,"IC50 (µM), MTT assay, SK-OV3",[1],22 µM
same,"IC50 (µM), MTT assay, B16F10",[2],20 µM
